T1: CXCL16 (UniProt Q9H2A7 Q9H2A7:30-118)
T1 sequence: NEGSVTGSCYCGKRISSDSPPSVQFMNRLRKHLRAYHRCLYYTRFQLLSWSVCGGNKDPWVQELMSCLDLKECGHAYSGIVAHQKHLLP

B1: FKN-S2 (ssDNA)
DNA: GGGGTGGGTGGGGGGCACGTGTGGGGGCGGCCAGGGTGCT
B2: random 40-mer (ssDNA)
DNA: CTATCGGCGACATGAACTTTGGCAAGGGCATCTGGTCCAT
B3: FKN-S2c (ssDNA)
DNA: GGGTGGGGGGCACGTGTGGGGGCGGCCAGG
B4: FKN-S2b (ssDNA)
DNA: GGGGTGGGTGGGGGGCACGTGTGGGGGCGGCCAGG
B5: 3' 5T FKN-S2 Amphiphile (ssDNA)
DNA: GGGGTGGGTGGGGGGCACGTGTGGGGGCGGCCAGGGTGCTTTTTT
modifications: 3' C16 dialkyl tail
B6: 3' 10A FKN-S2 Amphiphile (ssDNA)
DNA: GGGGTGGGTGGGGGGCACGTGTGGGGGCGGCCAGGGTGCTAAAAAAAAAA
modifications: 3' C16 dialkyl tail
B7: 3' 10T FKN-S2 Amphiphile (ssDNA)
DNA: GGGGTGGGTGGGGGGCACGTGTGGGGGCGGCCAGGGTGCTTTTTTTTTTT
modifications: 3' C16 dialkyl tail
B8: 5' 10T FKN-S2 Amphiphile (ssDNA)
DNA: TTTTTTTTTTGGGGTGGGTGGGGGGCACGTGTGGGGGCGGCCAGGGTGCT
modifications: 5' C16 dialkyl tail
B9: 3' PEG24 FKN-S2 Amphiphile (ssDNA)
DNA: B1 DNA
modifications: 3' PEG24 spacer + C16 dialkyl tail
B10: 3' C12 FKN-S2 Amphiphile (ssDNA)
DNA: B1 DNA
modifications: 3' C12 spacer + C16 dialkyl tail
B11: 3' No Spacer FKN-S2 Amphiphile (ssDNA)
DNA: B1 DNA
modifications: 3' C6 amino-linked C16 dialkyl tail
B12: 3' PEG4 FKN-S2 Amphiphile (ssDNA)
DNA: B1 DNA
modifications: 3' PEG4 spacer + C16 dialkyl tail
B13: 3' PEG8 FKN-S2 Amphiphile (ssDNA)
DNA: B1 DNA
modifications: 3' PEG8 spacer + C16 dialkyl tail
B14: 5' No Spacer FKN-S2 Amphiphile (ssDNA)
DNA: B1 DNA
modifications: 5' C6 amino-linked C16 dialkyl tail
B15: 3' C24 FKN-S2 Amphiphile (ssDNA)
DNA: B1 DNA
modifications: 3' C24 spacer + C16 dialkyl tail
B16: scrambled FKN-S2 (ssDNA)
DNA: GTTGGGATGAGGGTGGGCGGGCGCGGCGGCTGGGGGTCGG
B17: 3' 5T FKN-S2 Aptamer (ssDNA)
DNA: B5 DNA
B18: 3' 10T FKN-S2 Aptamer (ssDNA)
DNA: B7 DNA
B19: 5' 10T FKN-S2 Aptamer (ssDNA)
DNA: B8 DNA
B20: 3' 1T FKN-S2 Aptamer (ssDNA)
DNA: GGGGTGGGTGGGGGGCACGTGTGGGGGCGGCCAGGGTGCTT
B21: 5',3' 10T FKN-S2 Aptamer (ssDNA)
DNA: TTTTTTTTTTGGGGTGGGTGGGGGGCACGTGTGGGGGCGGCCAGGGTGCTTTTTTTTTTT

biological target: CCL8 (UniProt P80075 P80075:24-99); assay: filter; 0.2 nM protein; PBS pH 7.4, room temp; settings: tags: PeproTech 300-15; label: 5' 32P; parallel G-quartet and B-form features by CD
Sequence (P80075 24-99, one chain of several): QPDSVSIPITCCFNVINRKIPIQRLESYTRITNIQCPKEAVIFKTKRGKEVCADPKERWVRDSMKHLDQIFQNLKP
Procedure: (§1) FKN-S2 was labeled with γ-³²P ATP using a T4 polynucleotide kinase as described in the FKN-S2 Aptamer Homologous Competitive Binding Assay section. Unlabeled FKN-S2 aptamer and 10⁶ counts per minute of radiolabeled FKN-S2 aptamer were mixed in binding buffer (PBS with 50 μg/mL BSA and 2.5 μg/mL Poly (dA:dT); pH 7.4) and the aptamer was denatured at 95° C. for 5 minutes followed by snap cooling in ice water for 5 minutes. The aptamer was then serial diluted in binding buffer and the dilutions added to full length fractalkine, heat-denatured fractalkine and chemokines CCL8 (PeproTech Catalog Number 300-15) and CXCL16 (PeproTech Catalog Number 300-55). All proteins were at a concentration of 0.2 nM. Fractalkine was denatured by heating to 95° C. for 10 minutes followed by incubation on ice until use. The aptamer and protein were incubated for 1 hour at room temperature. Bound aptamer was collected by filtering the samples thorough at nitrocellulose membrane and signal captured with a phosphor film and imaged. The background was measured from wells containing an identical concentration of BSA without the protein. Binding was quantified using ImageJ. […] The binding that was seen may be due to incomplete denaturing or refolding of fractalkine during the experiment.

Binder | binding result
B1 | no binding

biological target: T1, CXCL16; assay: filter; 0.2 nM protein; PBS pH 7.4, room temp; settings: tags: PeproTech 300-55; label: 5' 32P; parallel G-quartet and B-form features by CD
Procedure: as §1

Binder | binding result
B1 | no binding

biological target: T2, fractalkine (CX3CL1) (Homo sapiens, UniProt P78423 P78423:25-339); assay: competition; vs radiolabeled FKN-S2, filter binding, PBS pH 7.4; Table 2 gives 8.6±0.3 nM (n=9); settings: tags: C-terminal polyhistidine; chemokine domain + mucin-like stalk; R&D Systems 365-FR-025; label: 5' 32P; parallel G-quartet and B-form features by CD
T2 sequence (P78423 25-339, one chain of several): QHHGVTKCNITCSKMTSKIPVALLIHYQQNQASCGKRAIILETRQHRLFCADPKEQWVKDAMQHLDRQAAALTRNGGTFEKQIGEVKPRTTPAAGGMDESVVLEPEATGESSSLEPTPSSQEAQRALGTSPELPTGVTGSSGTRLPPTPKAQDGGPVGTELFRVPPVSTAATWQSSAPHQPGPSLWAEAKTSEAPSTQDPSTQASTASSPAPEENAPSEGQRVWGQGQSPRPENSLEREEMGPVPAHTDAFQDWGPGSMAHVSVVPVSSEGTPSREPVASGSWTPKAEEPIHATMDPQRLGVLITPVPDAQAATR

Binder | IC50
B1 | 9.5 nM

biological target: T2, fractalkine (CX3CL1); assay: competition; vs radiolabeled FKN-S2; settings: tags: C-terminal polyhistidine; chemokine domain + mucin-like stalk; R&D Systems 365-FR-025
Procedure: FKN-S2 contains 40 nucleotides and we investigated if truncation of the aptamer would result in sequences with similar affinity to fractalkine but with fewer nucleotides. Three truncated versions of the FKN-S2 aptamer were synthesized with five nucleotides removed from the 5′ end (FKN-S2a), five from the 3′ end (FKN-S2b) and five from each end (FKN-S2c). Additionally, a random 40-mer (5′-[…] (SEQ ID NO:4)) was used as a control. The relative affinities of the truncated aptamers were tested using a heterogeneous competition assay with radiolabeled full length FKN-S2 (FIG. 4). IC₅₀ values (the concentration of 50% reduction in binding) were determined by non-linear regression fitting of the data to the binding equation given in herein and the values are shown in Table 1.
Truncated FKN-S2 Aptamer Competitive Binding Assay. […] 1 nM of unlabeled FKN-S2 and 5,000 cpm/μL (counts per minute/μL) of radio-labeled full length FKN-S2 were heat denatured and snap cooled before addition to either fractalkine or a BSA control at a concentration of 0.1 nM and incubated for 1 hour at room temperature. The solutions were filtered through a nitrocellulose membrane and exposed to a storage phosphor film overnight and imaged. The binding was quantified using ImageJ and the Dot Blot Analyzer plug-in. Data was fit using the non-linear regression program Origin 8 to the equation

Binder | IC50
B2 | > 100000 nM
B3 | > 100000 nM
B4 | 5410 nM

biological target: T2, fractalkine (CX3CL1); assay: competition; vs radiolabeled FKN-S2, 0.1 nM FKN, PBS; settings: tags: C-terminal polyhistidine; chemokine domain + mucin-like stalk; R&D Systems 365-FR-025
Procedure: (§2) IC₅₀ Binding Assay. FKN-S2 aptamer was labeled on the 5′ end with a radioactive phosphorous (³²P) using a T4 kinase. Unlabeled aptamer amphiphile was serially diluted in binding buffer composed of PBS with BSA, Poly(dA:dT) and radio-labeled FKN-S2 (generally less than 0.05 nM; ≈20,000 count per minute per well) and unlabeled FKN-S2 (1 nM). This ensured each aptamer dilution contained an identical concentration of FKN-S2. Fractalkine (0.1 nM) or BSA was added to each dilution and the aptamer was allowed to bind for 1 hour at room temperature. Each solution was then filtered though a nitrocellulose membrane where the fractalkine:aptamer complex was captured and non-bound aptamer was removed by washing the membrane three times with PBS. The membrane was then exposed to a phosphor film overnight and imaged. The binding was quantified using imageJ and the data fit to a binding equation to determine the IC₅₀.
Effect of the Spacer on Binding Affinity. […] Radiolabeled FKN-S2 aptamer and unlabeled aptamer-amphiphile were incubated with fractalkine for 1 hour and the aptamer:fractalkine complex collected by filtration through a nitrocellulose membrane. The concentration at which 50% of the aptamer is displaced by the unlabeled competitor is the IC₅₀ value.

Binder | IC50
B5 | 37.6 nM
B6 | 24.8 nM
B7 | 21.8 nM
B8 | 55.1 nM
B9 | 49.6 nM
B10 | 75.6 nM
B11 | 65.7 nM
B12 | 68.6 nM
B13 | 47.5 nM
B14 | 81.6 nM
B15 | 73.5 nM

biological target: T2, fractalkine (CX3CL1); assay: filter; homologous competition; 25 pM FKN, PBS pH 7.4, poly dA:dT, BSA, room temp; settings: tags: C-terminal polyhistidine; chemokine domain + mucin-like stalk; R&D Systems 365-FR-025; label: 5' 32P; parallel G-quartet and B-form features by CD
Procedure: The dissociation constant of FKN-S2 for fractalkine was determined using a radioactive homologous competition filter binding assay. Dilutions of unlabeled FKN-S2 aptamer were mixed with a constant concentration of ³²P ATP labeled FKN-S2. The dilutions were then incubated with 25 pM fractalkine for 1 hour at room temperature. […] Bound aptamer was collected by filtration through a nitrocellulose membrane and the dissociation constant determined by non-linear regression analysis.
All binding experiments occurred in binding buffer composed of PBS with 0.5 μg/mL poly dA:dT and 50 μg/mL bovine serum albumin (BSA), pH 7.4. Unlabeled full length FKN-S2 aptamer was diluted in binding buffer and a constant concentration of radiolabeled full length FKN-S2 aptamer added to each dilution. Full length fractalkine or an equivalent concentration of BSA was diluted in binding buffer to 50 pM. Aptamer and fractalkine/BSA was incubated for 1 hour at room temperature. Following incubation, samples were filtered through a nitrocellulose membrane using a bio-rad dot blot apparatus. Each well was washed 3 times with 200 μL of PBS to remove unbound aptamer. The membrane was dried and exposed to a storage phosphor screen overnight and imaged (Packard Cyclone). Binding was quantified using ImageJ and the Dot Blot Analyzer plug-in. The data was fit to the following equation

Binder | Kd
B1 | 3.4 nM

biological target: T2, fractalkine (CX3CL1); assay: filter; 1-10 nM aptamer; PBS pH 7.4, BSA, poly dA:dT; settings: tags: C-terminal polyhistidine; chemokine domain + mucin-like stalk; R&D Systems 365-FR-025; label: 32P
Procedure: Anti-fractalkine Antibody Blocking Assay. Unlabeled FKN-S2 and scrambled FKN-S2 aptamer (sequence 5′-[…] […], SEQ ID NO:7) were diluted to 10 nM in binding buffer (PBS with 50 μg/mL BSA and 2.5 μg/mL Poly (dA:dT); pH 7.4). Approximately 75,000 cpm/well of radio-labeled aptamer was added and the samples were diluted to 5 and 1 nM. Each dilution was heat denatured and snap cooled. Full length fractalkine was diluted to 0.25 nM and approximately 100 nM of anti-chemokine domain antibody (FKN Ab) was added and allowed to bind for 30 minutes at room temperature. The aptamer was added to the protein solution and incubated at room temperature for 30 minutes. Bound aptamer was collected by filtering the samples thorough at nitrocellulose membrane and signal captured with a phosphor film and imaged. The background binding signal was removed from the FKN and FKN Ab+FKN samples by subtracting the signal from a well containing an identical concentration of BSA without FKN or FKN Ab. Binding was quantified using ImageJ.

Binder | binding result
B16 | no binding

biological target: T2, fractalkine (CX3CL1); assay: competition; vs radiolabeled FKN-S2; settings: tags: C-terminal polyhistidine; chemokine domain + mucin-like stalk; R&D Systems 365-FR-025; remark: another data set of the same source
Procedure: as §2
We hypothesized that the improvement in affinity of the 3′ 10T FKN-S2 amphiphile may be due either to a spacer effect, where the spacer increases the distance between the aptamer and the tail, or due to an improvement in the affinity of the aptamer itself. To investigate the effect of the 10T spacer on the aptamer affinity, we measured the IC₅₀ values of the FKN-S2 aptamer with different nucleotide spacers (Table 3).

Binder | IC50
B17 | 3.4 nM
B18 | 3.6 nM
B19 | 8.7 nM
B20 | 9.2 nM
B21 | 2.7 nM

From patent US20130123347, “FRACTALKINE BINDING POLYNUCLEOTIDES AND METHODS OF USE” (published 2013)
